Biological target: BACE1 (Homo sapiens, UniProt P56817)
Test: HTRF BACE1 enzyme activity assay (long peptide Bi27)
Assay type: biochemical
Conditions: purified affinity matured Fabs
Procedure: The HTRF assay was performed as follows. […] The proteolytic reaction mixture was incubated at ambient temperature for 75 minutes and was quenched by the addition of 5 μL HTRF detection mixture containing 2 nM Streptavidin-D2 and 150 nM of 6E10 anti-amyloid beta antibody (Covance, Emoryville, Calif.) labeled with Europium cryptate in detection buffer (200 mM Tris pH 8.0, 20 mM EDTA, 0.1% BSA, and 0.8M KF). The final reaction mixture was incubated at ambient temperature for 60 minutes and the TR-FRET signal was measured using an EnVision Multilabel Plate Reader™ (Perkin-Elmer) at an excitation wavelength of 320 nm and emission wavelengths of 615 and 665 nm. Reactions lacking BACE1 enzyme (0 BACE) and reactions containing lacking anti-BACE1 antibodies (PBS (100% BACE1 Activity) were used as controls.
Fab proteins of 6 clones were purified and subjected for HTRF enzyme activity assay, as described above.
The affinity matured YW412.8.31 anti-BACE1 antibody was tested in a HTRF assay as described in Example 1. […] Additionally, reactions using a short FRET peptide (Rh-[…]-quencher (SEQ ID NO:54), Invitrogen) were also performed identically to the HTRF reactions. The resulting fluorogenic products from the control reactions were measured as above, but at an excitation wavelength of 545 nm and an emission wavelength of 585 nm. Obtained data were analyzed using GraphPad Prism 5™ (LaJolla, Calif.).

Chain of BACE1 (P56817 22-457): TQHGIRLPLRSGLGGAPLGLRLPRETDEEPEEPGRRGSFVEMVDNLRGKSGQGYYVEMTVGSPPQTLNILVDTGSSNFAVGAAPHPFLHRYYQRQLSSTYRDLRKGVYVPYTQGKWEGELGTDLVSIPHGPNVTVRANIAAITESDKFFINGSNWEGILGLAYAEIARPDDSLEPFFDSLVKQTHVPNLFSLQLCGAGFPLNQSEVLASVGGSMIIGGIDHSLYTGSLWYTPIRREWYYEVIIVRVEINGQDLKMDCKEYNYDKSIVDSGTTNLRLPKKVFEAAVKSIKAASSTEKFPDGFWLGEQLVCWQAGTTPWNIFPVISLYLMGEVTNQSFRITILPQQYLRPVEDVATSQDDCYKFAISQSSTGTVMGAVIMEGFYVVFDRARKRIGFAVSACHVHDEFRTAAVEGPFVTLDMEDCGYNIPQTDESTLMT

B1: LC4: affinity matured clone derived from Fab5 (antibody, V domains shown)
VL: DIQMTQSPSSLSASVGDRVTITCRASQSVSSAVAWYQQKPGKAPKLLIYSASSLYSGVPSRFSGSGSGTDFTLTISSLQPEDFATYYCQQYSYSLLTFGQGTKVEIK
VH: EISEVQLVESGGGLVQPGGSLRLSCAASGFNLSYSYIHWVRQAPGKGLEWVASIYSSYGSTYYADSVKGRFTISADTSKNTAYLQMNSLRAEDTAVYYCARSYHHSDKYYYAWSYALDYWGQGTLVTVSS
**Q.** For B1, which “inhibition activity compared to parent Fab” value is on record?
**A.** significant improved inhibition

B2: LC40 (antibody, V domains shown)
VL: DIQMTQSPSSLSASVGDRVTITCRASQYSYSYSVAWYQQKPGKAPKLLISYASYLYSGVPSRFSGSGSGTDFTLTISSLQPEDFATYYCQQYSYSYSPITFGQGTKVEIK
VH: EISEVQLVESGGGLVQPGGSLRLSCAASGFNVSSSSMHWVRQAPGKGLEWVASIYPYSSSTSYADSVKGRFTISADTSKNTAYLQMNSLRAEDTAVYYCARYSYYSYGIDYWGQGTLVTVSS
**Q.** How did the “inhibition activity compared to parent Fab” value turn out when B2 was run?
**A.** lost its inhibition activity
